From US20250361297A1, “ANTI- SIGLEC-15 BINDING MOLECULES AND METHODS OF USE” (ADAPTAM THERAPEUTICS, S.L., priority 2024, published 2025)

How the values were obtained:
[1] = target: T1, THP-1 cells overexpressing human Siglec-15 (Homo sapiens, UniProt Q6ZMC9); assay: Binding of anti-Siglec-15 ADCs to THP-1 S15+ cells (flow cytometry); conditions: relative to Trastuzumab-based ADC negative control
T1 construct: Human full-length Siglec-15 and CD19 genes were synthesized and cloned into the pLV-MSCV lentiviral vector; His; expressed in transfected cells; host or cells: THP-1 (lentiviral overexpression, 'THP-1 S15 OE')
T1 sequence (Q6ZMC9 20-328): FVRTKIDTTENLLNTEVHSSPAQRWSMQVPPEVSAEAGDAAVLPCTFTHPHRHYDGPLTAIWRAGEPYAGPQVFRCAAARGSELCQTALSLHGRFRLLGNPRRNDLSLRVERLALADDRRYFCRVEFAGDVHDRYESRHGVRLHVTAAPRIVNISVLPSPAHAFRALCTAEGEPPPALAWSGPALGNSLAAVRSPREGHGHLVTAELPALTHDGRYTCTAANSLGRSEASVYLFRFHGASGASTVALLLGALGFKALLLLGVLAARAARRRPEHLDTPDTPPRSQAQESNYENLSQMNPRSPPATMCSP
Protocol: Binding of anti-Siglec-15 ADCs to THP-1 S15+ cells: 50,000 cells/well of THP-1 S15 OE cells were added to a round bottom 96 well plate, centrifuged at 450×G for 5 minutes and the supernatant discarded. Human anti-siglec-15 IgG ADCs were prepared (starting at 198 nM, 3-fold serial dilution in staining buffer) and the cells were resuspended in 100 μl of ADC. Cells were incubated for 40 minutes on ice and 100 μl of staining buffer were added to each well, followed by centrifugation at 450×G for 5 minutes and supernatants were discarded. The secondary antibody was prepared (anti-human IgG-PE at 1:500 dilution) and added 100 μl to each well. Cells were incubated for 40 minutes on ice and 100 μl of staining buffer were added to each well followed by centrifugation at 450× G for 5 minutes to then discard the supernatant. Cells were resuspended in 150 μl of staining buffer and acquired in a flow cytometer.

[2] = target: T2, recombinant human Siglec-15 protein (Homo sapiens, UniProt Q6ZMC9); assay: BIACORE surface plasmon resonance binding affinity; conditions: SPR; antibody as ligand, human Siglec-15 as analyte; 1:1 Langmuir model
T2 construct: purchased Bonopusbio CW70-50 ug
T2 sequence (Q6ZMC9 20-263 limits assumed): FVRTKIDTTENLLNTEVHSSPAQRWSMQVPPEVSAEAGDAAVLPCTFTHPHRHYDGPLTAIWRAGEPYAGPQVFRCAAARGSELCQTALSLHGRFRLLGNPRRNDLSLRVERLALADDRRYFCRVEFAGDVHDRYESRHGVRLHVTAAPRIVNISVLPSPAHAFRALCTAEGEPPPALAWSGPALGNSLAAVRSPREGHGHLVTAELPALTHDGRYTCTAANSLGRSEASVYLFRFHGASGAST
Excerpt: Binding affinity determination of anti-Siglec-15 monoclonal antibodies using BIACORE surface plasmon resonance: The purified anti-Siglec-15 monoclonal antibodies (mAbs) were characterized for binding affinity and binding kinetics by Biacore T200 system (GE healthcare, Pittsburgh, PA, USA). Anti-Siglec-15 antibodies were covalently linked to a CM5 chip (carboxy methyl dextran coated chip, GE healthcare, Cat #BR-1005-30) via primary amines, using a standard amine coupling kit provided by Biacore (GE healthcare, Pittsburgh, PA, USA). Un-reacted moieties on the biosensor surface were blocked with ethanolamine. Then, serially diluted recombinant human Siglec-15-his protein (Bonopusbio, CW70-50 ug), 2-fold serial dilution in HBS-EP buffer starting at 80 nM, were respectively flown onto the chip at a flow rate of […]. The antigen-antibody association kinetics was followed for 2 minutes, and the dissociation kinetics was followed for 10 minutes. The association and dissociation curves were fit to a 1:1 Langmuir binding model using BIAcore evaluation software. The dissociation rate (kd) and association constant (ka) rate constants were obtained using Evaluation Software. The equilibrium dissociation constant (KD) was calculated from the ratio of kd over ka.

Molecule	binding capacity to THP-1 cells overexpressing human Siglec-15 [1]	ka [2] [M⁻¹ s⁻¹]	kd [2] [s⁻¹]
ZLA-1243-E01-MMAE (conjugate) VH: QVQLVQSGGGLVQPGRSLRLSCAASGFTFDDYAMHWVRQAPGKGLEWVSGISWNSGSIGYADSVKGRFTISRDNAKNSLYLQMNSLRAEDTALYYCAKGLWPSYDLDAFDIWGQGTMVTVSS VL: QSALTQPASVSGSPGQSITLSCTGTSSDVGAYNFVSWYQQHPGTAPKLMIYEVSNRPSGVSDRFSGSKSGNTASLTISGLQAEDEADYYCSSYTSTIPPFVFGTGTKVTVL	increased binding capacity	–	–
S15B1-VH1 + VL2: humanized S15B1 antibody, humanized VH1 (SEQ ID NO: 103) with humanized VL2 (antibody, V domains shown) VH: QVQLVQSGAEVKKPGASVKVSCKASGYAFSSSWMNWVRQAPGQGLEWIGRIYPGHGETNYNGKFKDRVTMTADTSTSTVYMELSSLRSEDTAVYFCARVDNSDPYYFDYWGQGTTVTVSS VL: DIVLTQSPASLAVSPGQRATITCRASKSVSTSGYSYMHWYQQKPGQPPKLLIYLASNLESGVPARFSGSGSGTDFTLTINPVEAEDTATYYCQHGRELPFTFGGGTKLEIK	–	3.54e+06	0.000563
S15B1-VH2 + VL1: humanized S15B1 antibody, humanized VH2 with humanized VL1 (antibody, V domains shown) VH: QVQLVQSGAEVKKPGASVKVSCKASGYAFSSSWMNWVRQAPGQGLEWIGRIYPGHGETNYNGKFKDRVTMTADTSTSTVYMELSSLRSEDTAVYFCARVDNSDPYYFDYWGQGTTVTVSS VL: DIVLTQSPASLAVSPGQRATITCRASKSVSTSGYSYMHWYQQKPGQPPKLLIYLASNLESGVPARFSGSGSGTDFTLTINPVEAEDTANYYCQHGRELPFTFGGGTKLEIK	–	3.8e+06	0.000473
S15B1-VH2 + VL2: humanized S15B1 antibody, humanized VH2 with humanized VL2 (antibody, V domains shown) VH: QVQLVQSGAEVKKPGASVKVSCKASGYAFSSSWMNWVRQAPGQGLEWIGRIYPGHGETNYNGKFKDRVTMTADTSTSTVYMELSSLRSEDTAVYFCARVDNSDPYYFDYWGQGTTVTVSS VL: DIVLTQSPASLAVSPGQRATITCRASKSVSTSGYSYMHWYQQKPGQPPKLLIYLASNLESGVPARFSGSGSGTDFTLTINPVEAEDTATYYCQHGRELPFTFGGGTKLEIK	–	3.44e+06	0.000326
S15B1-VH3 + VL1: humanized S15B1 antibody, humanized VH3 with humanized VL1 (antibody, V domains shown) VH: QVQLVQSGAEVKKPGASVKVSCKASGYAFSSSWMNWVKQAPGQGLEWIGRIYPGHGETNYNGKFKDRATMTADTSTSTVYMELSSLRSEDTAVYFCARVDNSDPYYFDYWGQGTTVTVSS VL: DIVLTQSPASLAVSPGQRATITCRASKSVSTSGYSYMHWYQQKPGQPPKLLIYLASNLESGVPARFSGSGSGTDFTLTINPVEAEDTANYYCQHGRELPFTFGGGTKLEIK	–	3.73e+06	0.000257
S15B1-VH3 + VL2: humanized S15B1 antibody, humanized VH3 with humanized VL2 (antibody, V domains shown) VH: QVQLVQSGAEVKKPGASVKVSCKASGYAFSSSWMNWVKQAPGQGLEWIGRIYPGHGETNYNGKFKDRATMTADTSTSTVYMELSSLRSEDTAVYFCARVDNSDPYYFDYWGQGTTVTVSS VL: DIVLTQSPASLAVSPGQRATITCRASKSVSTSGYSYMHWYQQKPGQPPKLLIYLASNLESGVPARFSGSGSGTDFTLTINPVEAEDTATYYCQHGRELPFTFGGGTKLEIK	–	4.49e+06	0.000293
S15B1-VH4 + VL1: humanized S15B1 antibody, humanized VH4 with humanized VL1 (antibody, V domains shown) VH: QVQLVQSGAEVKKPGASVKVSCKASGYAFSSSWMNWVKQAPGQGLEWIGRIYPGHGETNYNGKFKDRATMTADKSTSTVYMELSSLRSEDTAVYFCARVDNSDPYYFDYWGQGTTVTVSS VL: DIVLTQSPASLAVSPGQRATITCRASKSVSTSGYSYMHWYQQKPGQPPKLLIYLASNLESGVPARFSGSGSGTDFTLTINPVEAEDTANYYCQHGRELPFTFGGGTKLEIK	–	4.1e+06	0.000385
S15B1-VH4 + VL2: humanized S15B1 antibody, humanized VH4 with humanized VL2 (antibody, V domains shown) VH: QVQLVQSGAEVKKPGASVKVSCKASGYAFSSSWMNWVKQAPGQGLEWIGRIYPGHGETNYNGKFKDRATMTADKSTSTVYMELSSLRSEDTAVYFCARVDNSDPYYFDYWGQGTTVTVSS VL: DIVLTQSPASLAVSPGQRATITCRASKSVSTSGYSYMHWYQQKPGQPPKLLIYLASNLESGVPARFSGSGSGTDFTLTINPVEAEDTATYYCQHGRELPFTFGGGTKLEIK	–	1.69e+06	0.000234
S15B1-VH1 + VL1: humanized S15B1 antibody, humanized VH1 (SEQ ID NO: 103) with humanized VL1 (antibody, V domains shown) VH: QVQLVQSGAEVKKPGASVKVSCKASGYAFSSSWMNWVRQAPGQGLEWIGRIYPGHGETNYNGKFKDRVTMTADTSTSTVYMELSSLRSEDTAVYFCARVDNSDPYYFDYWGQGTTVTVSS VL: DIVLTQSPASLAVSPGQRATITCRASKSVSTSGYSYMHWYQQKPGQPPKLLIYLASNLESGVPARFSGSGSGTDFTLTINPVEAEDTANYYCQHGRELPFTFGGGTKLEIK	–	3.35e+06	0.000455
